From ChEMBL document CHEMBL5108047

Assays:
[1] = tested on: CN(C(=S)Cn1nc2c(c1C(F)(F)F)CCC2)c1ccccc1; settings: Homo sapiens; dose 2.5 nM
Description: Inhibition of human DNA polymerase theta assessed as substrate Vmax using dNTP as substrate at 2.5 nM

[2] = tested on: CN(C(=S)Cn1nc2c(c1C(F)(F)F)CCC2)c1ccccc1; settings: Homo sapiens; dose 5.0 nM
Description: Inhibition of human DNA polymerase theta assessed as substrate Vmax using dNTP as substrate at 5 nM

[3] = tested on: CN(C(=S)Cn1nc2c(c1C(F)(F)F)CCC2)c1ccccc1; settings: Homo sapiens; dose 10.0 nM
[4] = tested on: CN(C(=S)Cn1nc2c(c1C(F)(F)F)CCC2)c1ccccc1; settings: Homo sapiens; dose 20.0 nM
[5] = tested on: CN(C(=S)Cn1nc2c(c1C(F)(F)F)CCC2)c1ccccc1; settings: Homo sapiens; dose 30.0 nM
Description: Inhibition of human DNA polymerase theta assessed as substrate Vmax using dNTP as substrate at 30 nM

[6] = tested on: CN(C(=S)Cn1nc2c(c1C(F)(F)F)CCC2)c1ccccc1; settings: Homo sapiens; dose 40.0 nM
[7] = tested on: CN(C(=S)Cn1nc2c(c1C(F)(F)F)CCC2)c1ccccc1; settings: Homo sapiens; dose 2.5 nM; remark: listed apart in the source
Description: Inhibition of human DNA polymerase theta assessed as substrate Km using dNTP as substrate at 2.5 nM

[8] = tested on: CN(C(=S)Cn1nc2c(c1C(F)(F)F)CCC2)c1ccccc1; settings: Homo sapiens; dose 5.0 nM; remark: listed apart in the source
Description: Inhibition of human DNA polymerase theta assessed as substrate Km using dNTP as substrate at 5 nM

[9] = tested on: CN(C(=S)Cn1nc2c(c1C(F)(F)F)CCC2)c1ccccc1; settings: Homo sapiens; dose 10.0 nM; remark: listed apart in the source
[10] = tested on: CN(C(=S)Cn1nc2c(c1C(F)(F)F)CCC2)c1ccccc1; settings: Homo sapiens; dose 20.0 nM; remark: listed apart in the source
[11] = tested on: CN(C(=S)Cn1nc2c(c1C(F)(F)F)CCC2)c1ccccc1; settings: Homo sapiens; dose 30.0 nM; remark: listed apart in the source
Description: Inhibition of human DNA polymerase theta assessed as substrate Km using dNTP as substrate at 30 nM

[12] = tested on: CN(C(=S)Cn1nc2c(c1C(F)(F)F)CCC2)c1ccccc1; settings: Homo sapiens; dose 40.0 nM; remark: listed apart in the source

DNA polymerase theta (Homo sapiens), O75417
Vmax [1]: 51.2 µM/min
Vmax [2]: 51.3 µM/min
Vmax [3]: 25.5 µM/min
Vmax [4]: 21.8 µM/min
Vmax [5]: 15.2 µM/min
Vmax [6]: 6.45 µM/min
Km [7]: 25.2 µM
Km [8]: 36.6 µM
Km [9]: 24 µM
Km [10]: 57 µM
Km [11]: 112 µM
Km [12]: 39.5 µM
